Results from article PMC6269424.

Key:
[1] = western blot of adipose tissue; settings: glycan lost; control: HFD-fed Con (OGTflox) mice
[2] = phospho-PPARγ western blot of adipose tissue; settings: glycan lost; control: HFD-fed Con (OGTflox) mice

B1: PPARγ2: adipocyte-specific OGT knockout (FKO) (protein)
parent chain: MGETLGDSPVDPEHGAFADALPMSTSQEITMVDTEMPFWPTNFGISSVDLSVMEDHSHSFDIKPFTTVDFSSISAPHYEDIPFTRADPMVADYKYDLKLQEYQSAIKVEPASPPYYSEKTQLYNRPHEEPSNSLMAIECRVCGDKASGFHYGVHACEGCKGFFRRTIRLKLIYDRCDLNCRIHKKSRNKCQYCRFQKCLAVGMSHNAIRFGRMPQAEKEKLLAEISSDIDQLNPESADLRALAKHLYDSYIKSFPLTKAKARAILTGKTTDKSPFVIYDMNSLMMGEDKIKFKHITPLQEQSKEVAIRIFQGCQFRSVEAVQEITEYAKNIPGFINLDLNDQVTLLKYGVHEIIYTMLASLMNKDGVLISEGQGFMTREFLKNLRKPFGDFMEPKFEFAVKFNALELDDSDLAIFIAVIILSGDRPGLLNVKPIEDIQDNLLQALELQLKLNHPESSQLFAKVLQKMTDLRQIVTEHVQLLHVIKKTETDMSLHPLLQEIYKDLY
- expression_or_secretion [1]: decreases
- other: Ser112 phosphorylation [2]: increases
